Here are results for 120 sequences from the supplement of paper PMC10126150.

± gives the standard deviation of the averaged measurements.

The test system of the data set is ATP. Nature of the data set: switch fluorescence ratio, 500 uM ATP over buffer (Cy3 cluster intensity, sum of 5 cycles each) (fold (ratio)); higher = stronger signal-on switching upon ATP binding; sequences stand for … in TCGTCGGCAGCGTCAGATGTGTATAAGAGACAGTTTTTTTTTTTTTTTTTTTTTTTTT…TC. The conditions noted are these: aptamer strand: ATP DNA aptamer (quencher-CACCTGGGGGAGTATTGCGGAGGAAGG + anchor), 100 nM annealed; ATP concentration: 500 uM. An outline of the steps: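 Switching-strand clusters labelled with Cy3 on a modified Illumina MiSeq flow-cell were annealed to 100 nM quencher-labelled ATP aptamer, imaged in selection buffer, and re-imaged after 15 min with 500 uM ATP at 22 °C. This was done over five cycles with NaOH stripping and re-annealing in between. The fluorescence ratio is summed target-cycle over summed buffer-cycle Cy3 intensity per cluster, averaged per switch-domain sequence, excluding clusters outside 100-1000 RFU.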
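Further: ATP exposure 15 min at 22 °C before imaging.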

Regarding TGTTAAGGAA, the switch fluorescence ratio amounted to 1.02 ± 0.029. TGTTAATAAC: the switch fluorescence ratio is 1 ± 0.052. For the sequence TGTTAATATT, the switch fluorescence ratio was 0.989 ± 0.018.

With TGTTAATGGT, the switch fluorescence ratio came to 0.994 ± 0.025. Take TGTTAATGTG: the switch fluorescence ratio was determined as 1.004 ± 0.0038. As for TGTTAATTGA, the figure is 1.01 ± 0.015; as for TGTTACCTGA, 1.058 ± 0.01; as for TGTTACTCGT, 1.03 ± 0.0012. With TGTTAGAACG, the switch fluorescence ratio amounted to 1.02 ± 0.015. As for TGTTAGATGA, the switch fluorescence ratio stood at 0.976 ± 0.013. Consider TGTTAGATTT, for which the switch fluorescence ratio stood at 1.05 ± 0.19. Turning to TGTTAGGGGC, the switch fluorescence ratio came to 0.98 ± 0.046. Turning to TGTTAGTCTT, the switch fluorescence ratio was 0.969 ± 0.057. For TGTTAGTTTT, the switch fluorescence ratio is 0.981 ± 0.013. As for TGTTATATTG, the figure is 1 ± 0.035; as for TGTTCCAATA, 1.03 ± 0.024. On to TGTTCCGACT, for which the switch fluorescence ratio is 1.05 ± 0.051. In the case of TGTTCCGCCC, the switch fluorescence ratio turned out to be 2.012 ± 0.0024. As to TGTTCCGGGA, the switch fluorescence ratio amounted to 1.04 ± 0.023. In the case of TGTTCCTTTT, the switch fluorescence ratio worked out at 1.03 ± 0.023. For the sequence TGTTCGGTGT, the switch fluorescence ratio came to 1.008 ± 0.0049. Take TGTTCTAGTT: the switch fluorescence ratio was found to be 1.01 ± 0.015.

Regarding TGTTCTTATA, the switch fluorescence ratio worked out at 0.993 ± 0.026. Take TGTTGAAATT: the switch fluorescence ratio came out at 1.03 ± 0.077. TGTTGAAGGG: the switch fluorescence ratio is 1.01 ± 0.014.

Take TGTTGAGGCG: the switch fluorescence ratio is 0.981 ± 0.015. Regarding TGTTGAGTTT, the switch fluorescence ratio was found to be 0.994 ± 0.027. With TGTTGATCAG, the switch fluorescence ratio was determined as 0.982 ± 0.03. Consider TGTTGCAGTT, for which the switch fluorescence ratio was determined as 1.03 ± 0.02. TGTTGCCAAT: the switch fluorescence ratio came to 1.01 ± 0.029. Consider TGTTGCGCTT, for which the switch fluorescence ratio worked out at 1.033 ± 0.007. Turning to TGTTGCGGGG, the switch fluorescence ratio was found to be 0.995 ± 0.038. In the case of TGTTGCGTTA, the switch fluorescence ratio is 0.985 ± 0.021. Next, TGTTGCTGGA: 1 ± 0.03; TGTTGGACGG: 1.07 ± 0.037; TGTTGGACGT: 1.036 ± 0.0024.

Turning to TGTTGGAGAG, the switch fluorescence ratio was 1.02 ± 0.02.

As to TGTTGGAGGG, the switch fluorescence ratio is 1.04 ± 0.027. With TGTTGGAGGT, the switch fluorescence ratio amounted to 1.02 ± 0.045. As for TGTTGGGGAA, the figure is 0.9676 ± 0.0074. Next, TGTTGTATGT: 0.994 ± 0.015; TGTTGTCGGT: 0.988 ± 0.063; TGTTGTGTGG: 1.02 ± 0.027. Take TGTTGTGTGT: the switch fluorescence ratio was found to be 0.985 ± 0.028. In the case of TGTTGTTATC, the switch fluorescence ratio is 0.974 ± 0.038.

TGTTGTTGGG: the switch fluorescence ratio came out at 0.9946 ± 0.0087.

For the sequence TGTTGTTTGA, the switch fluorescence ratio was 0.991 ± 0.016. With TGTTTAAAAA, the switch fluorescence ratio came out at 0.987 ± 0.025. For TGTTTAAACG, the switch fluorescence ratio worked out at 1.025 ± 0.005. TGTTTAATTC: the switch fluorescence ratio amounted to 1.3 ± 0.39. As to TGTTTAATTG, the switch fluorescence ratio is 0.97673 ± 0.0004. Regarding TGTTTAGTTT, the switch fluorescence ratio is 1.01 ± 0.033. Next, TGTTTATAAT: 0.99 ± 0.013; TGTTTATTTC: 1.03 ± 0.08; TGTTTATTTG: 0.965 ± 0.017. In the case of TGTTTCAAGT, the switch fluorescence ratio worked out at 0.973 ± 0.064.

As to TGTTTCGTGG, the switch fluorescence ratio is 0.971 ± 0.02. For the sequence TGTTTCTAGG, the switch fluorescence ratio was determined as 0.979 ± 0.029. Next, TGTTTCTGGT: 0.969 ± 0.038; TGTTTGGGAA: 1 ± 0.038; TGTTTGGGTG: 1.08 ± 0.11. As to TGTTTGGTC, the switch fluorescence ratio was 0.997 ± 0.013. Consider TGTTTGTGAT, for which the switch fluorescence ratio was 1.003 ± 0.0098. As for TGTTTTAAAT, the switch fluorescence ratio was found to be 0.978 ± 0.03. TGTTTTAAGG: the switch fluorescence ratio worked out at 1.009 ± 0.0081. On to TGTTTTAGGT, for which the switch fluorescence ratio is 1.02 ± 0.029.

As for TGTTTTAGT, the switch fluorescence ratio was 0.992 ± 0.024. Regarding TGTTTTATCT, the switch fluorescence ratio is 0.9857 ± 0.0073. In the case of TGTTTTCCCT, the switch fluorescence ratio amounted to 0.979 ± 0.053. Next, TGTTTTGCGT: 1.01 ± 0.037; TGTTTTGGGA: 0.997 ± 0.021. Turning to TGTTTTGGGG, the switch fluorescence ratio is 0.998 ± 0.035. Take TGTTTTTCTA: the switch fluorescence ratio was 1 ± 0.044. As for TGTTTTTCTG, the switch fluorescence ratio came out at 0.968 ± 0.039. For TGTTTTTGCT, the switch fluorescence ratio is 0.969 ± 0.033. Next, TGTTTTTTAG: 1.01 ± 0.024; TTAAAAAAAA: 1.16 ± 0.35; TTAAAAACTG: 0.992 ± 0.033. Turning to TTAAAACGGT, the switch fluorescence ratio is 1.21 ± 0.31. As for TTAAAAGCGT, the figure is 1.02 ± 0.013; as for TTAAAAGGCT, 0.9974 ± 0.0012.

On to TTAAAAGTAG, for which the switch fluorescence ratio amounted to 1 ± 0.058. Regarding TTAAAAGTTT, the switch fluorescence ratio worked out at 0.994 ± 0.043.

On to TTAAAATCGA, for which the switch fluorescence ratio turned out to be 0.972 ± 0.072. TTAAAATCTG: the switch fluorescence ratio turned out to be 1.02 ± 0.027. As for TTAAAATGCT, the figure is 0.978 ± 0.011; as for TTAAAATGGT, 1 ± 0.052. On to TTAAAATGTT, for which the switch fluorescence ratio was 1.0072 ± 0.00057. Next, TTAAAATTGC: 1.08 ± 0.064; TTAAAATTTT: 1.06 ± 0.06. Turning to TTAAACCGGT, the switch fluorescence ratio amounted to 1.03 ± 0.037. Turning to TTAAACGCGG, the switch fluorescence ratio is 1.05 ± 0.066. TTAAACGCTT: the switch fluorescence ratio came to 1.02 ± 0.043.

Take TTAAACGGGA: the switch fluorescence ratio came out at 1.03 ± 0.024. Consider TTAAACGTTT, for which the switch fluorescence ratio was 1.02 ± 0.021.

Regarding TTAAAGCCGG, the switch fluorescence ratio amounted to 0.966 ± 0.061. For the sequence TTAAAGCCTT, the switch fluorescence ratio came out at 1.03 ± 0.053. In the case of TTAAAGCGCG, the switch fluorescence ratio came to 1.04 ± 0.024. Next, TTAAAGGCCC: 1.0667 ± 4.6e-05; TTAAATCTCG: 0.989 ± 0.046; TTAAATGGCA: 0.993 ± 0.033. Turning to TTAAATTCGA, the switch fluorescence ratio stood at 0.966 ± 0.036. In the case of TTAAATTGAT, the switch fluorescence ratio was determined as 0.987 ± 0.04.

Turning to TTAAATTTT, the switch fluorescence ratio came out at 1.01 ± 0.024.

Turning to TTAAATTTTG, the switch fluorescence ratio came out at 1.015 ± 0.0084. Turning to TTAAATTTTT, the switch fluorescence ratio was determined as 1.01 ± 0.041. Turning to TTAACAGTGG, the switch fluorescence ratio amounted to 0.989 ± 0.032. Regarding TTAACAGTTT, the switch fluorescence ratio was 1.001 ± 0.0067. TTAACCGTTT: the switch fluorescence ratio was 1.09 ± 0.08.

As for TTAACCTTTT, the switch fluorescence ratio was 1.36 ± 0.58.

TTAACGCCGC: the switch fluorescence ratio came out at 1.13 ± 0.069.

Consider TTAACGCGGA, for which the switch fluorescence ratio stood at 1.03 ± 0.011.

For the sequence TTAACGGCGC, the switch fluorescence ratio is 1.04 ± 0.081. In the case of TTAACGGGGT, the switch fluorescence ratio was determined as 1.04 ± 0.073. Regarding TTAACGGTAG, the switch fluorescence ratio was 0.983 ± 0.038. As to TTAACGGTTT, the switch fluorescence ratio was found to be 0.988 ± 0.013. With TTAACTCGGA, the switch fluorescence ratio stood at 0.996 ± 0.056. For TTAACTGGAA, the switch fluorescence ratio came out at 0.978 ± 0.031. As for TTAACTTGTG, the figure is 0.986 ± 0.031; as for TTAAGAGACG, 1.06 ± 0.07.
